Results reported in patent US20170037117A1, “COMPOSITIONS AND METHODS FOR TREATING METABOLIC DISORDERS” (Salk Institute for Biological Studies, priority 2014, published 2017).

Molecular target: T1, human α-CGRP (Homo sapiens, UniProt P06881)
T1 construct: 1-37 (WT); purchased GenScript Corporation or Global Peptide Services
T1 sequence (P06881 83-119 limits assumed): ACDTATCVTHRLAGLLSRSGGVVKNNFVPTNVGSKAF
Experiment: Biacore affinity of G1 Fab and variants to human α-CGRP
Type: binding
Conditions: 37° C.; Fab fragments; screening mode except underlined values (G1 high-resolution mode)
Method: Biacore assay for affinity determination. […] All Biacore assays were conducted in HBS-EP running buffer (10 mM HEPES pH 7.4, 150 mM NaCl, 3 mM EDTA, 0.005% v/v polysorbate P20). CGRP surfaces were prepared by diluting the N-biotinylated CGRP to a concentration of less than 0.001 mg/mL into HBS-EP buffer and injecting it across the SA sensor chip using variable contact times. Low capacity surfaces, corresponding to capture levels <50 response units (RU) were used for high-resolution kinetic studies, whereas high capacity surfaces (about 800 RU of captured CGRP) were used for concentration studies, screening, and solution affinity determinations. […] Samples were typically injected for 1 minute at 100 μL/min and dissociation times of at least 10 minutes were allowed. After each binding cycle, surfaces were regenerated with 25 mM NaOH in 25% v/v ethanol, which was tolerated over hundreds of cycles. […]
High-resolution analysis of binding interactions with extremely slow offrates. […] The association rate constant (kon) was determined by injecting a 2-fold titration series (in duplicate) spanning 550 nM-1 nM for 30 sec at 100 uL/min and allowing only a 30 sec dissociation phase. The dissociation rate constant (koff) was determined by injecting three concentrations (high, medium, and low) of the same titration series in duplicate for 30 sec and allowing a 2-hour dissociation phase. […]

B1: M25: G1 variant: L1 R28N; HC-FW3 L99T A100V (antibody, V domains shown)
VH: EVQLVESGGGLVQPGGSLRLSCAASGFTFSNYWISWVRQAPGKGLEWVAEIRSESDASATHYAEAVKGRFTISRDNAKNSLYLQMNSLRAEDTAVYYCTVYFDYGLAIQNYWGQGTLVTVSS
VL: EIVLTQSPATLSLSPGERATLSCKASKNVTTYVSWYQQKPGQAPRLLIYGASNRYLGIPARFSGSGSGTDFTLTISSLEPEDFAVYYCSQSYNYPYTFGQGTKLEIK
- α-human koff: 0.00014 s⁻¹
